According to article doi:10.1101/2025.10.12.681846v1 (bioRxiv, 2025):
Like-named read-outs stand apart in the source and are kept apart here.

Columns and labels:
[1] = Biodistribution and intra-tissue distribution in diabetic mice; type: in vivo; settings: three days after s.c. 10 mg/kg; CD31 staining
type 1 diabetic mice [2] = test: In vivo glucose-responsive insulin release in mice; settings: for initial PIL: before glucose 3 g/kg
type 1 diabetic minipigs [3] = test: Type 1 diabetes treatment study in minipigs; type: in vivo, Bama minipigs; settings: for time BG remained within the target range (70 to 200 mg/dL): n = 3, statistical time 0-168 h for insulin-129 and 0-24 h for Lantus
[4] = test system: STZ-induced type 1 diabetic mice; test: Type 1 diabetes treatment study in mice; type: in vivo, C57BL/6 mice
[5] = Pharmacokinetic studies in diabetic minipigs; type: in vivo, Bama minipigs; settings: s.c., two-compartmental model, n = 3
diabetic mice = test: Toxicity evaluation and histomorphology in mice; type: in vivo; settings: one week post-injection, 10 mg/kg
healthy mice = test: Isoglycaemic; type: in vivo; settings: summary statement
mouse nostrin = target: T1, mouse nostrin (Mus musculus, UniProt Q6WKZ7); test: SPR binding to mouse nostrin; settings: for Kd: read-out: KD for nostrin, SPR, 25 °C, DPBS pH 7.4
T1 sequence (Q6WKZ7 1-506): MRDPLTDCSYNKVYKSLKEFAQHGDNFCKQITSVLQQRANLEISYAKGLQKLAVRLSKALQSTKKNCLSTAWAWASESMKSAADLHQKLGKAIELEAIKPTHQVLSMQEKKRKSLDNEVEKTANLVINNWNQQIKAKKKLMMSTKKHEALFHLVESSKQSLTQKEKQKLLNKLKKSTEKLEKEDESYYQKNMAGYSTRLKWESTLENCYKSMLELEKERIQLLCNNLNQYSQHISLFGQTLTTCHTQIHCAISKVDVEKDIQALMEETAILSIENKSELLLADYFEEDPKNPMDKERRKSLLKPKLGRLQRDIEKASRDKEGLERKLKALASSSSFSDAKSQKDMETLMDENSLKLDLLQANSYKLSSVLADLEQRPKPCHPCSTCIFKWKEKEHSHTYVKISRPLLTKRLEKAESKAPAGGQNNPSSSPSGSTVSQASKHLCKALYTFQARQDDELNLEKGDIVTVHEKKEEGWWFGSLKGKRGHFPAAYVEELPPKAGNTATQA

[6] = Pharmacokinetics after subcutaneous injection in diabetic mice; type: in vivo; settings: s.c. 12 mg/kg
human IgG1-Fc = human IgG1-Fc (Homo sapiens, UniProt P01857); test: SPR binding to human IgG1-Fc; settings: read-out: KD for human IgG1-Fc
[7] = Pharmacokinetics after intravenous injection in healthy mice; type: in vivo, C57BL/6J mice; settings: i.v. 1 nmol/kg, two-compartment model, n = 5
type 1 diabetic mice [8] = test: Intraperitoneal glucose tolerance test in diabetic mice; type: in vivo; settings: i.p. glucose 1.5 g/kg, n = 5
human nostrin = target: T2, human nostrin (Homo sapiens, UniProt Q8IVI9); test: SPR binding to human nostrin; settings: read-out: KD for human nostrin
T2 sequence (Q8IVI9 1-506): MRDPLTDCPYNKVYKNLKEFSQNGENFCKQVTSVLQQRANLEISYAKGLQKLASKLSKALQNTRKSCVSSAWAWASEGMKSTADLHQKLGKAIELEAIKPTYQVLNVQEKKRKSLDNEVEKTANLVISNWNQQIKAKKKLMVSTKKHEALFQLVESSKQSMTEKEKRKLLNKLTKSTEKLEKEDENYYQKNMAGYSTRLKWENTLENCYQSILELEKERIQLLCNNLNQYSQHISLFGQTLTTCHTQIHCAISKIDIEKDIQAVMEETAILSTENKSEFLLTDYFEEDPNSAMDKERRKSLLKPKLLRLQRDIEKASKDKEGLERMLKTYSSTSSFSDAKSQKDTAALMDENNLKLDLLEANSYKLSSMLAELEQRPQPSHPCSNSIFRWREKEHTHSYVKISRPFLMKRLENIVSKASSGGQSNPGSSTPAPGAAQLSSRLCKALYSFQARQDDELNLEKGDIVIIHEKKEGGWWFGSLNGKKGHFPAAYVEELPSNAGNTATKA

[9] = test system: STZ-induced type 1 diabetic mice; test: Isoglycaemic clamp at hyperglycaemia in diabetic mice; type: in vivo; settings: BG clamped at 400 mg/dL; one day after 12 mg/kg; n = 5
type 1 diabetic minipigs [10] = test: In vivo blood glucose-responsive insulin release in minipigs; settings: for BG rise within 30 minutes: one day after insulin-129, i.v. glucose infusion
mouse IgG1-Fc = mouse IgG1-Fc (Mus musculus, UniProt P01868); test: SPR binding to mouse IgG1-Fc; settings: for Kd: read-out: KD for IgG1-Fc, SPR, 25 °C, DPBS pH 7.4
Sequence of mouse IgG1-Fc (P01868 98-324 limits assumed): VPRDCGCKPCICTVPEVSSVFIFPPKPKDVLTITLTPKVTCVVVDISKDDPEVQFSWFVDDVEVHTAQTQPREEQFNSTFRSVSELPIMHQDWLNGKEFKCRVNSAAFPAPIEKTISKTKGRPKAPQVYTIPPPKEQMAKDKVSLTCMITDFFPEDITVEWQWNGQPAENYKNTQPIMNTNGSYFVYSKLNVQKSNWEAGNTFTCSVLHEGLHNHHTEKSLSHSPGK

type 1 diabetic minipigs [11] = test: Fully automated insulin delivery system in diabetic minipigs; type: in vivo; settings: 48 h
[12] = test system: STZ-induced type 1 diabetic mice; test: Long-term therapy as weekly formulation in diabetic mice; type: in vivo, C57BL/6 mice; settings: for BG drop in the first few hours after injection: n = 5
[13] = SPECT/CT imaging of 131I-labelled insulin-129 in diabetic mice; type: in vivo; settings: s.c. 10 mg/kg
[14] = five days after 12 mg/kg, n = 5
[15] = one day after 12 mg/kg, i.p. glucose 3 g/kg
[16] = one day after 12 mg/kg, i.p. glucose 3 g/kg, n = 5

Cy5-labelled insulin-129: insulin-129 labelled with Sulfo-Cy5-NHS
vascular association within the major organs [1]: high level of vascular association

insulin glargine [reference compound]
BG-correlated changes of insulin level (type 1 diabetic mice [2]; 400 U/kg, i.p. glucose 3.0 g/kg at three and six hours, n = 5): did not display BG-correlated changes | time BG regulated in the normal range (type 1 diabetic minipigs [3]; Pig-Ⅰ, single dose 0.25 U/kg): less than 12 hours | time BG regulated in the normal range (type 1 diabetic minipigs [3]; Pig-Ⅱ, single dose 0.33 U/kg): less than 24 hours | time BG regulated in the normal range (type 1 diabetic minipigs [3]; Pig-Ⅲ, single dose 0.48 U/kg): less than 12 hours | time BG remained within the target range (70 to 200 mg/dL) (type 1 diabetic minipigs [3]): 42.9% | glycaemic control with consecutive daily injections ([4]; 40 U/kg every 24 hours for seven days, n = 5): poor glycaemic control | time normoglycaemia maintained ([4]; single s.c. 40 U/kg (equivalent to 1.46 mg/kg), n = 5): 4 h | time normoglycaemia maintained ([4]; single s.c. 400 U/kg (equivalent to 14.6 mg/kg), n = 5): 12 h

insulin-129: recombinant human insulin with 4-carboxy-3-fluorophenylboronic acid (FPBA) covalently conjugated at A1 and B29 sites
synchronised increase in insulin level upon glucose injection (type 1 diabetic mice [2]; STZ-induced type 1 diabetic mice, summary statement): more than 3 fold | initial PIL (type 1 diabetic mice [2]; [14]): 210.2 ± 31.7 μU/mL | peak PIL (type 1 diabetic mice [2]; five days after 12 mg/kg, i.p. glucose 3 g/kg, n = 5): 573.7 ± 40.0 μU/mL | PIL after decline within 120 minutes (type 1 diabetic mice [2]; [14]): 204.3 ± 52.0 μU/mL | initial PIL (type 1 diabetic mice [2]; one day after 12 mg/kg, n = 5): 258.6 ± 37.6 μU/mL | BG by 45 minutes (type 1 diabetic mice [2]; [15]): below 200 mg/dL | increase in PIL (type 1 diabetic mice [2]; [15]): approximately 4.2 fold | BG spike at 30 minutes (type 1 diabetic mice [2]; [16]): 310.7 ± 29.2 mg/dL | peak PIL (type 1 diabetic mice [2]; [16]): 1080.4 ± 49.6 μU/mL | PIL after decline (type 1 diabetic mice [2]; one day after 12 mg/kg, in tandem with the BG reduction, n = 5): 257.3 ± 45.2 μU/mL | half-life [5]: 127.5 ± 36.6 h | histomorphological analysis of major organs by H&E staining (diabetic mice): no apparent pathological alterations | time BG remained within the target range (70 to 200 mg/dL) (type 1 diabetic minipigs [3]): 73.0% | temporal change in blood glucose clearance determined by clamp studies (healthy mice): 2 fold | increase in KD for nostrin (mouse nostrin; glucose from 0 to 20 mM): 19.5 fold | increase in KD for nostrin (mouse nostrin; glucose from 5 to 20 mM): 8.4 fold | Kd (mouse nostrin; 5 mM glucose): 0.201 µM | Kd (mouse nostrin; 10 mM glucose): 0.605 µM | Kd (mouse nostrin; 20 mM glucose): 1.68 µM | Kd (mouse nostrin; absence of glucose): 0.086 µM | time to peak plasma insulin-129 level ([6]; ELISA): within one hour | peak average plasma insulin-129 level (PIL) ([6]; ELISA, n = 5): 1320.0 ± 41.3 μU/mL | t1/2α ([6]; two-compartment model, n = 5): 5.4 ± 1.3 h | t1/2β ([6]; two-compartment model, n = 5): 147.8 ± 16.8 h | Kd (human IgG1-Fc): 0.0367 µM | average t1/2β [7]: 112.5 ± 17.4 h | lowest average BG level ([4]; one hour after s.c. 12 mg/kg, mean ± s.d., n = 5, SD): 76.0 ± 6.4 mg/dL | treatment duration among the three insulin analogues ([4]; s.c. 4 mg/kg, insulin-1, insulin-29 and insulin-129, n = 5): longest duration | hypoglycaemia (BG < 70 mg/dL) ([4]; s.c. 4, 8 and 12 mg/kg, any mouse): No hypoglycaemia | extension of normoglycaemia compared with insulin glargine ([4]; single injection): approximately 47.5 folds | time kept normoglycaemic ([4]; single s.c. 4 mg/kg, n = 5): 46 h | time kept normoglycaemic ([4]; single s.c. 8 mg/kg, n = 5): 142 h | time kept normoglycaemic ([4]; single s.c. 12 mg/kg, n = 5): 190 h | BG before glucose administration (type 1 diabetic mice [8]; day 1 after 12 mg/kg): 96.8 ± 19.7 mg/dL | peaking BG within 15 minutes (type 1 diabetic mice [8]; day 1 after 12 mg/kg): 194.8 ± 31.9 mg/dL | BG before glucose administration (type 1 diabetic mice [8]; day 5 after 12 mg/kg): 163.1 ± 27.7 mg/dL | peaking BG within 15 minutes (type 1 diabetic mice [8]; day 5 after 12 mg/kg): 310.3 ± 44.2 mg/dL | Kd (human nostrin): 0.241 µM | mean glucose infusion rate compared with insulin glargine (5 U/kg) [9]: comparable mean glucose infusion rates | baseline serum insulin-129 level (type 1 diabetic minipigs [10]; Pig I): 369.1 μU/mL | peak serum insulin-129 level (type 1 diabetic minipigs [10]; Pig I, glucose infusion): 907.3 μU/mL | baseline serum insulin-129 level (type 1 diabetic minipigs [10]; Pig II): 375.5 μU/mL | peak serum insulin-129 level (type 1 diabetic minipigs [10]; Pig II, glucose infusion): 1108.0 μU/mL | baseline serum insulin-129 level (type 1 diabetic minipigs [10]; Pig III): 430.6 μU/mL | peak serum insulin-129 level (type 1 diabetic minipigs [10]; Pig III, glucose infusion): 1520.5 μU/mL | BG rise within 30 minutes (type 1 diabetic minipigs [10]; Pig Ⅰ): 399.6 mg/dL | BG rise within 30 minutes (type 1 diabetic minipigs [10]; Pig Ⅱ): 316.8 mg/dL | BG rise within 30 minutes (type 1 diabetic minipigs [10]; Pig Ⅲ): 599.4 mg/dL | BG by 45 minutes (type 1 diabetic minipigs [10]; Pigs Ⅰ, Ⅱ and Ⅲ): below 200 mg/dL | rise of serum insulin-129 level from baseline (type 1 diabetic minipigs [10]; glucose infusion, Pigs I, II and III): approximately threefold | increase in KD for IgG1-Fc (mouse IgG1-Fc; glucose from 5 to 20 mM): 5.0 fold | Kd (mouse IgG1-Fc; 5 mM glucose): 0.137 µM | Kd (mouse IgG1-Fc; 10 mM glucose): 0.276 µM | Kd (mouse IgG1-Fc; 20 mM glucose): 0.691 µM | Kd (mouse IgG1-Fc; absence of glucose): 0.0424 µM | BG levels below 50 mg/dL (type 1 diabetic minipigs [11]; first of three minipigs): 0% | BG levels below 50 mg/dL, average (type 1 diabetic minipigs [11]; mean ± s.d., n = 3, SD): 1.7 ± 2.2% | BG levels below 50 mg/dL (type 1 diabetic minipigs [11]; second of three minipigs): 1.0% | BG levels below 50 mg/dL (type 1 diabetic minipigs [11]; third of three minipigs): 4.2% | normoglycaemia maintained by each injection ([12]; 10 mg/kg then three weekly 4.8 mg/kg s.c.): one week | time remaining effective before BG returned to original level ([12]; after the fourth injection): more than 800 hours | BG drop in the first few hours after injection ([12]; first injection (10 mg/kg s.c.)): 89.6 ± 13.1 mg/dL | BG drop in the first few hours after injection ([12]; fourth weekly injection (4.8 mg/kg s.c.)): 78.8 ± 8.8 mg/dL | stabilised BG ([12]; one day after the fourth injection): approximately 150 mg/dL | BG drop in the first few hours after injection ([12]; second weekly injection (4.8 mg/kg s.c.)): 79.6 ± 12.4 mg/dL | BG drop in the first few hours after injection ([12]; third weekly injection (4.8 mg/kg s.c.)): 77.8 ± 5.4 mg/dL

^131I-labelled insulin-129: insulin-129 labelled by 131I using the chloramine T labelling method
skin absorption [13]: rapid skin absorption

insulin icodec [reference compound]
duration relative to insulin-129 at 12 mg/kg ([4]; 400 U/kg): roughly one-third | time normoglycaemia maintained ([4]; single s.c. 400 U/kg (equivalent to 15.3 mg/kg), n = 5): approximately 72 hours
